B1: CCT4, subunit of bovine TRiC/CCT (bTRiC) (natural protein, Bos taurus, UniProt Q2T9X2 1-542, looked up)
chain: MPENVAPRTGPPAGAAGAAGGRGKSAYQDRDKPAQIRFSNISAAKAVADAIRTSLGPKGMDKMIQDGKGDVTITNDGATILKQMQVLHPAARMLVELSKAQDIEAGDGTTSVVIIAGSLLDSCTKLLQKGIHPTIISESFQKALEKGIEILTDMSRPEELSDRETLLNSAATSLNSKVVSQYSSLLSPMSVDAVMKVIDPATATSVDLRDIKIVKKLGGTIDDCELVEGLVLTQKVANSGITRVEKAKIGLIQFCLSAPKTDMDNQIVVSDYVQMDRVLREERAYILNLVKQIKKTGCNVLLIQKSILRDALSDLALHFLNKMKIMVVKDIEREDIEFICKTIGTKPVAHVDQFTADMLGSAELAEEVSLNGSGKLIKITGCASPGKTVTIVVRGSNKLVIEEAERSIHDALCVIRCLVKKRALIAGGGAPEIELALRLTEYSRTLSGMESYCIRAFADAMEVIPSTLAENAGLNPISTVTELRNRHAQGEKTTGINVRKGGISNILEEQVVQPLLVSVSALTLATETVRSILKIDDVVNTR
B2: CCT3, subunit of bovine TRiC/CCT (bTRiC) (natural protein, Bos taurus, UniProt Q3T0K2 1-545, looked up)
chain: MMGHRPVLVLSQNTKRESGRKVQSGNINAAKTIADIIRTCLGPKSMMKMLLDPMGGIVMTNDGNAILREIQVQHPAAKSMIEISRTQDEEVGDGTTSVIILAGEMLSVAEHFLEQQMHPTVVISAYRKALDDMISTLKKISIPVDTSNRDTMLNIINSSITTKVISRWSSLACNIALDAVKTVQFEENGRKEIDIKKYARVEKIPGGIIEDSCVLRGVMINKDVTHPRMRRYIKNPRIVLLDSSLEYKKGESQTDIEITREEDFTRILQMEEEYIQQLCEDIIQLKPDVVITEKGISDLAQHYLMRANITAIRRVRKTDNNRIARACGARIVSRPEELREEDVGTGAGLLEIKKIGDEYFTFITECKDPKACTILLRGASKEILSEVERNLQDAMQVCRNVLLDPQLVPGGGASEMAVAHALTEKSKAMTGVEQWPYRAVAQALEVIPRTLIQNCGASTIRLLTSLRAKHTQENCETWGVNGETGTLVDMKELGIWEPLAVKLQTYKTAVETAVLLLRIDDIVSGHKKKGDDQSRQGGAPDAGQE
B3: CCT2, subunit of bovine TRiC/CCT (bTRiC) (natural protein, Bos taurus, UniProt Q3ZBH0 1-535, looked up)
chain: MASLSLAPVNIFKAGADEERAETARLSSFIGAIAIGDLVKSTLGPKGMDKILLSSGRDASLMVTNDGATILKNIGVDNPAAKVLVDMSRVQDDEVGDGTTSVTVLAAELLREAESLIAKKIHPQTIIAGWREATKAARQALLNSAVDHGSDEVKFRQDLMNIAGTTLSSKLLTHHKDHFTKLAVEAVLRLKGSGNLEAIHVIKKLGGSLADSYLDEGFLLDKKIGVNQPKRIENAKILIANTGMDTDKIKIFGSRVRVDSTAKVAEIEHAEKEKMKEKVERILKHGINCFINRQLIYNYPEQLFGAAGVMAIEHADFVGVERLALVTGGEIASTFDHPELVKLGSCKLIEEVMIGEDKLIHFSGVALGEACTIVLRGATQQILDEAERSLHDALCVLAQTVKDSRTVYGGGCSEMLMAHAVTQLASRTPGKEAVAMESYAKALRMLPTIIADNAGYDSADLVAQLRAAHSEGKTTAGLDMKEGTIGDMSVLGITESFQVKRQVLLSAAEAAEVILRVDNIIKAAPRKRVPDHHPC
B4: CCT7, subunit of bovine TRiC/CCT (bTRiC) (natural protein, Bos taurus, UniProt Q2NKZ1 1-543, looked up)
chain: MMPTPVILLKEGTDSSQGIPQLVSNISACQVIAEAVRTTLGPRGMDKLIVDGRGKATISNDGATILKLLDVVHPAAKTLVDIAKSQDAEVGDGTTSVTLLAAEFLKQVKPYVEEGLHPQIIIRAFRTATQLAVNKIKEIAVTVKKEDKVEQRKLLEKCAMTALSSKLISQQKAFFAKMVVDAVMMLDDLLQLKMIGIKKVQGGALEESQLVAGVAFKKTFSYAGFEMQPKKYHNPMIALLNVELELKAEKDNAEIRVHTVEDYQAIVDAEWNILYDKLEKIHHSGAKVVLSKLPIGDVATQYFADRDMFCAGRVPEEDLKRTMMACGGSIQTSVNALSSDVLGRCQVFEETQIGGERYNFFTGCPKAKTCTIILRGGAEQFMEETERSLHDAIMIVRRAIKNDSVVAGGGAIEMELSKYLRDYSRTIPGKQQLLIGAYAKALEIIPRQLCDNAGFDATNILNKLRARHAQGGMWYGVDINTEDIADNFEAFVWEPAMVRINALTAASEAACLIVSVDETIKNPRSTVDASPAAGRGRGRGRLH
B5: CCT2, subunit of yeast TRiC/CCT (yTRiC) (natural protein, Saccharomyces cerevisiae, UniProt P39076 1-527, looked up)
chain: MSVQIFGDQVTEERAENARLSAFVGAIAVGDLVKSTLGPKGMDKLLQSASSNTCMVTNDGATILKSIPLDNPAAKVLVNISKVQDDEVGDGTTSVTVLSAELLREAEKLIDQSKIHPQTIIEGYRLASAAALDALTKAAVDNSHDKTMFREDLIHIAKTTLSSKILSQDKDHFAELATNAILRLKGSTNLEHIQIIKILGGKLSDSFLDEGFILAKKFGNNQPKRIENAKILIANTTLDTDKVKIFGTKFKVDSTAKLAQLEKAEREKMKNKIAKISKFGINTFINRQLIYDYPEQLFTDLGINSIEHADFEGVERLALVTGGEVVSTFDEPSKCKLGECDVIEEIMLGEQPFLKFSGCKAGEACTIVLRGATDQTLDEAERSLHDALSVLSQTTKETRTVLGGGCAEMVMSKAVDTEAQNIDGKKSLAVEAFARALRQLPTILADNAGFDSSELVSKLRSSIYNGISTSGLDLNNGTIADMRQLGIVESYKLKRAVVSSASEAAEVLLRVDNIIRARPRTANRQHM

How the values were obtained:
Assay in all cases: cross-linking
[1] = biological target: CCT1, subunit of bovine TRiC/CCT (bTRiC) (Bos taurus, UniProt Q32L40 1-556)
[2] = biological target: B1
[3] = biological target: T1, CCT8, subunit of bovine TRiC/CCT (bTRiC) (Bos taurus, UniProt Q3ZCI9 1-548)
T1 sequence (looked up): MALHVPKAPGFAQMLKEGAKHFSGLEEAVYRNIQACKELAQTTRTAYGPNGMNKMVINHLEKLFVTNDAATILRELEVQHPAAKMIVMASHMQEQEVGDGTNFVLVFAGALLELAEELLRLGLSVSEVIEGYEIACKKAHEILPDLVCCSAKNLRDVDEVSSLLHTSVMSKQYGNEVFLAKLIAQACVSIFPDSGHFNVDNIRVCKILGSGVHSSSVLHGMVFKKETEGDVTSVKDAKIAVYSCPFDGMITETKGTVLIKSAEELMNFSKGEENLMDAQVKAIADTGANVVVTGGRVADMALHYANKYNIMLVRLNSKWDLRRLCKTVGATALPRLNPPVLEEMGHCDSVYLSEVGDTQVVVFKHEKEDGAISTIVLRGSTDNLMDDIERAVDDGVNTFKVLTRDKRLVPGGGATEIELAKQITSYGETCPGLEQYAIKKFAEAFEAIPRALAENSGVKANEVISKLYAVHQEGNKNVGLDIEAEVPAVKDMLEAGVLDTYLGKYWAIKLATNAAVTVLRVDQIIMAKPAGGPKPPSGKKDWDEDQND

[4] = biological target: CCT4, subunit of yeast TRiC/CCT (yTRiC) (Saccharomyces cerevisiae, UniProt P39078 1-528)
Sequence of CCT4, subunit of yeast TRiC/CCT (yTRiC) (P39078 whole entry): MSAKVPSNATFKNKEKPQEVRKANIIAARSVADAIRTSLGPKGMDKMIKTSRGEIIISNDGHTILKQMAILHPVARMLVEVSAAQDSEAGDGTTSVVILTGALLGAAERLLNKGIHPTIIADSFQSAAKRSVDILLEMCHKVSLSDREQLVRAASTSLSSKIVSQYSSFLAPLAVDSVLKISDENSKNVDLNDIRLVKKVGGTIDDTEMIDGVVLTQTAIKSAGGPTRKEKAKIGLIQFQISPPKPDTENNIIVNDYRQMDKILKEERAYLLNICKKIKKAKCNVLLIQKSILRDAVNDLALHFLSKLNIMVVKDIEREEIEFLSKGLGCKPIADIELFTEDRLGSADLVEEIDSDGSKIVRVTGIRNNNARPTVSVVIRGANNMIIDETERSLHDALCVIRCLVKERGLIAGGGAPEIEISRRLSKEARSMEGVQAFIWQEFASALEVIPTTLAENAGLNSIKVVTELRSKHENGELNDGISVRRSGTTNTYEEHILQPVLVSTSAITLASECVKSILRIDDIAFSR

Sequence of CCT1, subunit of bovine TRiC/CCT (bTRiC) (Q32L40 whole entry): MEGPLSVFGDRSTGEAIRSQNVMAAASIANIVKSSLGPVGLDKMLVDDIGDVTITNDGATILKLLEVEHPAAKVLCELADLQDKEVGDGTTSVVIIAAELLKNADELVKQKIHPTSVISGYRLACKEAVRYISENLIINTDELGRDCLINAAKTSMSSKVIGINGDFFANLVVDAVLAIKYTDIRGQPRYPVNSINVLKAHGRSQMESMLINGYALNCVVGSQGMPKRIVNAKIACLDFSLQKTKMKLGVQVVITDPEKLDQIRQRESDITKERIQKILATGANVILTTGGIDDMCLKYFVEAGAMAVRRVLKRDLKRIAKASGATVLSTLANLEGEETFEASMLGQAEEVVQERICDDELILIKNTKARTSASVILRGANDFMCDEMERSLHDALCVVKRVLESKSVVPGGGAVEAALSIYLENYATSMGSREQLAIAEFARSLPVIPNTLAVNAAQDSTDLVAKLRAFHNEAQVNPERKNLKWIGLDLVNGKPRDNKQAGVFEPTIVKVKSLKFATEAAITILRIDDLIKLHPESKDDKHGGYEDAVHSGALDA

## B1
[1]
  binding result: binds

## B2
[1]
  binding result: binds

## B3
[2]
  binding result: binds

## B4
[3]
  binding result: binds

## B5
[4]
  binding result: binds

Reference: paper PMC3350567 (Structure(London, England:1993), 2012)
